{
  "source": "paper PMC10030467",
  "about": "(Nature Communications, 2023)",
  "molecules": {"B1": {"name": "TRIM72^ΔSPRY (2-287) (domain or fragment, human, UniProt Q6ZMU5-1 2-287, looked up)", "chain": "SAAPGLLHQELSCPLCLQLFDAPVTAECGHSFCRACLGRVAGEPAADGTVLCPCCQAPTRPQALSTNLQLARLVEGLAQVPQGHCEEHLDPLSIYCEQDRALVCGVCASLGSHRGHRLLPAAEAHARLKTQLPQQKLQLQEACMRKEKSVAVLEHQLVEVEETVRQFRGAVGEQLGKMRVFLAALEGSLDREAERVRGEAGVALRRELGSLNSYLEQLRQMEKVLEEVADKPQTEFLMKYCLVTSRLQKILAESPPPARLDIQLPIISDDFKFQVWRKMFRALMPA", "notes": "TRIM72, human, residues 2-287 (RING, B-box, coiled-coil); source: E. coli Rosetta (DE3), purified; not shown: His-Sumo, N-terminal, cleaved"}, "B2": {"name": "TRIM72^ΔRING (84-477) (domain or fragment, human, UniProt Q6ZMU5-1 84-477, looked up)", "chain": "GHCEEHLDPLSIYCEQDRALVCGVCASLGSHRGHRLLPAAEAHARLKTQLPQQKLQLQEACMRKEKSVAVLEHQLVEVEETVRQFRGAVGEQLGKMRVFLAALEGSLDREAERVRGEAGVALRRELGSLNSYLEQLRQMEKVLEEVADKPQTEFLMKYCLVTSRLQKILAESPPPARLDIQLPIISDDFKFQVWRKMFRALMPALEELTFDPSSAHPSLVVSSSGRRVECSEQKAPPAGEDPRQFDKAVAVVAHQQLSEGEHYWEVDVGDKPRWALGVIAAEAPRRGRLHAVPSQGLWLLGLREGKILEAHVEAKEPRALRSPERRPTRIGLYLSFGDGVLSFYDASDADALVPLFAFHERLPRPVYPFFDVCWHDKGKNAQPLLLVGPEGAEA", "notes": "TRIM72, human, residues 84-477 (B-box, coiled-coil, SPRY); also called RING deletion; source: E. coli Rosetta (DE3), purified; not shown: His-Sumo, N-terminal, cleaved"}, "B3": {"name": "TRIM72^ΔRING-B-box (122-477) (domain or fragment, human, UniProt Q6ZMU5-1 122-477, looked up)", "chain": "AAEAHARLKTQLPQQKLQLQEACMRKEKSVAVLEHQLVEVEETVRQFRGAVGEQLGKMRVFLAALEGSLDREAERVRGEAGVALRRELGSLNSYLEQLRQMEKVLEEVADKPQTEFLMKYCLVTSRLQKILAESPPPARLDIQLPIISDDFKFQVWRKMFRALMPALEELTFDPSSAHPSLVVSSSGRRVECSEQKAPPAGEDPRQFDKAVAVVAHQQLSEGEHYWEVDVGDKPRWALGVIAAEAPRRGRLHAVPSQGLWLLGLREGKILEAHVEAKEPRALRSPERRPTRIGLYLSFGDGVLSFYDASDADALVPLFAFHERLPRPVYPFFDVCWHDKGKNAQPLLLVGPEGAEA", "notes": "TRIM72, human, residues 122-477 (coiled-coil and SPRY); also called CC-SPRY; source: E. coli Rosetta (DE3), purified; not shown: His-Sumo, N-terminal, cleaved"}, "B4": {"name": "TRIM72 W277A (natural protein, human, UniProt Q6ZMU5-1 2-477, looked up)", "chain": "SAAPGLLHQELSCPLCLQLFDAPVTAECGHSFCRACLGRVAGEPAADGTVLCPCCQAPTRPQALSTNLQLARLVEGLAQVPQGHCEEHLDPLSIYCEQDRALVCGVCASLGSHRGHRLLPAAEAHARLKTQLPQQKLQLQEACMRKEKSVAVLEHQLVEVEETVRQFRGAVGEQLGKMRVFLAALEGSLDREAERVRGEAGVALRRELGSLNSYLEQLRQMEKVLEEVADKPQTEFLMKYCLVTSRLQKILAESPPPARLDIQLPIISDDFKFQVARKMFRALMPALEELTFDPSSAHPSLVVSSSGRRVECSEQKAPPAGEDPRQFDKAVAVVAHQQLSEGEHYWEVDVGDKPRWALGVIAAEAPRRGRLHAVPSQGLWLLGLREGKILEAHVEAKEPRALRSPERRPTRIGLYLSFGDGVLSFYDASDADALVPLFAFHERLPRPVYPFFDVCWHDKGKNAQPLLLVGPEGAEA", "notes": "TRIM72, human, residues 2-477, point mutant; primers are in Supplementary Data 3; source: E. coli Rosetta (DE3), purified; not shown: His-Sumo, N-terminal, cleaved"}, "B5": {"name": "TRIM72 R180A (natural protein, human, UniProt Q6ZMU5-1 2-477, looked up)", "chain": "B4 chain with R179A, A276W", "notes": "TRIM72, human, residues 2-477, point mutant; source: E. coli Rosetta (DE3), purified; not shown: His-Sumo, N-terminal, cleaved"}, "B6": {"name": "TRIM72 R198A (natural protein, human, UniProt Q6ZMU5-1 2-477, looked up)", "chain": "B4 chain with R197A, A276W", "notes": "as for B5"}, "B7": {"name": "TRIM72 R169E (natural protein, human, UniProt Q6ZMU5-1 2-477, looked up)", "chain": "B4 chain with R168E, A276W", "notes": "as for B5"}, "B8": {"name": "TRIM72 R198E (natural protein, human, UniProt Q6ZMU5-1 2-477, looked up)", "chain": "B4 chain with R197E, A276W", "notes": "as for B5"}, "B9": {"name": "TRIM72 F272A (natural protein, human, UniProt Q6ZMU5-1 2-477, looked up)", "chain": "B4 chain with F271A, A276W", "notes": "as for B5"}, "B10": {"name": "TRIM72 W277E (natural protein, human, UniProt Q6ZMU5-1 2-477, looked up)", "chain": "B4 chain with A276E", "notes": "as for B5"}, "B11": {"name": "TRIM72 R220E (natural protein, human, UniProt Q6ZMU5-1 2-477, looked up)", "chain": "B4 chain with R219E, A276W", "notes": "as for B5"}, "B12": {"name": "TRIM72 M179E (natural protein, human, UniProt Q6ZMU5-1 2-477, looked up)", "chain": "B4 chain with M178E, A276W", "notes": "as for B5"}, "B13": {"name": "TRIM72 R220A (natural protein, human, UniProt Q6ZMU5-1 2-477, looked up)", "chain": "B4 chain with R219A, A276W", "notes": "as for B5"}, "B14": {"name": "TRIM72 R169A (natural protein, human, UniProt Q6ZMU5-1 2-477, looked up)", "chain": "B4 chain with R168A, A276W", "notes": "as for B5"}, "B15": {"name": "TRIM72 R180E (natural protein, human, UniProt Q6ZMU5-1 2-477, looked up)", "chain": "B4 chain with R179E, A276W", "notes": "as for B5"}, "B16": {"name": "TRIM72 M179A (natural protein, human, UniProt Q6ZMU5-1 2-477, looked up)", "chain": "B4 chain with M178A, A276W", "notes": "as for B5"}, "B17": {"name": "full-length human TRIM72 protein (2-477) (natural protein, UniProt Q6ZMU5-1 2-477, looked up)", "chain": "B4 chain with A276W", "notes": "TRIM72 (MG53), human, residues 2-477; open reading frame of GenBank NM_001008274.4; A dimer in solution at low concentration; the RING domain is not seen in the crystal structure although the full-length protein was crystallised; also called MG53; Tripartite Motif Protein 72; source: E. coli Rosetta (DE3), purified (nickel column, Source Q, Superdex 200 increase); not shown: His-Sumo, N-terminal, …"}, "B18": {"name": "TRIM72 C242S (natural protein, human, UniProt Q6ZMU5-1 2-477, looked up)", "chain": "B4 chain with C241S, A276W", "notes": "as for B5"}, "B19": {"name": "TRIM72 C144S (natural protein, human, UniProt Q6ZMU5-1 2-477, looked up)", "chain": "B4 chain with C143S, A276W", "notes": "as for B5"}, "B20": {"name": "TRIM72 I95A (natural protein, human, UniProt Q6ZMU5-1 2-477, looked up)", "chain": "B4 chain with I94A, A276W", "notes": "TRIM72, human, residues 2-477, point mutant in the B-box; also called I95A mutant; source: E. coli Rosetta (DE3), purified; not shown: His-Sumo, N-terminal, cleaved"}},
  "note": "Residue numbers refer to the chain shown, from its start. Numbers in names are those of the source. Where “and” joins values, the source holds several entries; their conditions need not be identical. Equal values may be shown once.",
  "data": [
    {"molecular_target": "KAP1/TRIM28 (Homo sapiens) (UniProt Q13263)", "test": "not given", "details": "cited from earlier work", "units": {"Kd": "µM"}, "values": [
      {"molecule": "KAP1/TRIM28 (from UniProt Q13263)", "Kd": 10}
    ]},
    {"molecular_target": "the molecule itself", "test": "AUC + SEC-MALS; deletion constructs of TRIM72 in solution; 20 mM Tris-HCl pH 8.0, 200 mM NaCl, 0.3 mM TCEP", "details": "not given", "values": [
      {"molecule": "B1", "stoichiometry N": 2},
      {"molecule": "B2", "stoichiometry N": 2},
      {"molecule": "B3", "stoichiometry N": 2}
    ]},
    {"molecular_target": "the molecule itself", "test": "SEC-MALS; point mutants, 100 μL at 1 mg/mL; Superdex 200 increase, 20 mM Tris-HCl pH 8.0, 200 mM NaCl, 0.3 mM TCEP", "details": "not given", "values": [
      {"molecule": "B4", "stoichiometry N": 2},
      {"molecule": "B5", "stoichiometry N": 2},
      {"molecule": "B6", "stoichiometry N": 2},
      {"molecule": "B7", "stoichiometry N": 2},
      {"molecule": "B8", "stoichiometry N": 2},
      {"molecule": "B9", "stoichiometry N": 2},
      {"molecule": "B10", "stoichiometry N": 2},
      {"molecule": "B11", "stoichiometry N": 2},
      {"molecule": "B12", "stoichiometry N": 2},
      {"molecule": "B13", "stoichiometry N": 2},
      {"molecule": "B14", "stoichiometry N": 2},
      {"molecule": "B15", "stoichiometry N": 2},
      {"molecule": "B16", "stoichiometry N": 2}
    ]},
    {"molecular_target": "the molecule itself", "test": "AUC; sedimentation velocity, lower protein concentrations of the series 1-50 μM; 20 mM Tris-HCl pH 8.0, 200 mM NaCl, 0.3 mM TCEP, 20 °C; monomers to dimer", "details": "not given", "values": [
      {"molecule": "B17", "stoichiometry N": 2}
    ]},
    {"molecular_target": "the molecule itself", "test": "cross-linking; disulfide bonds by oxidation: about 20 μM protein with 0-0.3% H2O2, 4 °C, 30 min, 20 mM Tris-HCl pH 8.0, 200 mM NaCl, 0.3 mM TCEP; non-reducing PAGE", "details": "not given", "values": [
      {"molecule": "B18", "binding result": "binds"},
      {"molecule": "B19", "binding result": "binds"}
    ]},
    {"molecular_target": "the molecule itself", "test": "AUC; sedimentation velocity, increasing protein concentration (1, 2, 10, 20, 50 μM); 20 mM Tris-HCl pH 8.0, 200 mM NaCl, 0.3 mM TCEP, 20 °C; SEDPHAT self-association; dimers to tetramer (and hexamer)", "details": "not given", "units": {"Kd": "µM"}, "values": [
      {"molecule": "B20", "Kd": "~2200"},
      {"molecule": "B17", "Kd": "~780", "stoichiometry N": "4 and 6"}
    ]}
  ]
}
